Laboratory results from PMC10950856, “Structure of orthoreovirus RNA chaperone σNS, a component of viral replication factories” (Nature Communications, 2024).
Values joined by “and” are separate entries in the source; they are usually repeats but may differ in a detail not shown here. Equal entries are not always repeated.

Tests used:
[1] = molecular target: the molecule itself; assay: SEC; S200 16/60-increase column, 10 mM HEPES (pH 8.0), 150 mM NaCl, after anion-exchange chromatography; size of the oligomer from the elution volume
[2] = molecular target: the molecule itself; assay: not stated; in solution; the method is not named for this construct (the constructs were purified on an S200 16/60-increase column)

B1: wildtype (WT) σNS (mammalian orthoreovirus, strain type 3 Dearing) (natural protein)
chain: MASSLRAAISKIKRDDVGQQVCPNYVMLRSSVTTKVVRNVVEYQIRTGGFFSCLAMLRPLQYAKRERLLGQRNLERISTRDILQTRDLHSLCMPTPDAPMSNHQASTMRELICSYFKVDHADGLKYIPMDERYSPSSLARLFTMGMAGLHITTEPSYKRVPIMHLAADLDCMTLALPYMITLDGDTVVPVAPTLSAEQLLDDGLKGLACMDISYGCEVDANSRPAGDQSMDSSRCINELYCEETAEAICVLKTCLVLNCMQFKLEMDDLAHNAAELDKIQMMIPFSERVFRMASSFATIDAQCFRFCVMMKDKNLKIDMRETTRLWTRSASDDSVATSSLSISLDRGRWVAADASDARLLVFPIRV
notes: σNS nonstructural protein of mammalian orthoreovirus, strain type 3 Dearing; synthesized gene in pET28; source: E. coli DE3 cells, purified (Ni-NTA, TEV cleavage, Q column, S200 SEC); not shown: His tag, N-terminal, cleaved
[1]
  stoichiometry N: 10 and 8

B2: selenomethionine (Se-Met)-substituted σNS-R6A (natural protein)
chain: MASSLAAAISKIKRDDVGQQVCPNYVMLRSSVTTKVVRNVVEYQIRTGGFFSCLAMLRPLQYAKRERLLGQRNLERISTRDILQTRDLHSLCMPTPDAPMSNHQASTMRELICSYFKVDHADGLKYIPMDERYSPSSLARLFTMGMAGLHITTEPSYKRVPIMHLAADLDCMTLALPYMITLDGDTVVPVAPTLSAEQLLDDGLKGLACMDISYGCEVDANSRPAGDQSMDSSRCINELYCEETAEAICVLKTCLVLNCMQFKLEMDDLAHNAAELDKIQMMIPFSERVFRMASSFATIDAQCFRFCVMMKDKNLKIDMRETTRLWTRSASDDSVATSSLSISLDRGRWVAADASDARLLVFPIRV
modifications: selenomethionine in place of methionine (Se-Met-substituted; Mse 1 named)
notes: σNS nonstructural protein of mammalian orthoreovirus, strain type 3 Dearing, with R6A; synthesized gene in pET28; Octamer by SEC; helical assembly of dimers in the crystal; Residue 1 (Mse 1) is seen in the structure; also called Se-Met σNS-R6A; source: E. coli B834 cells in medium with Se-Met, purified (Ni-NTA, TEV cleavage, Q column, S200 SEC); not shown: His tag, N-terminal, cleaved
[1]
  stoichiometry N: 8

B3: σNS-R6A (native, without Se-Met substitution) (natural protein)
chain: MASSLAAAISKIKRDDVGQQVCPNYVMLRSSVTTKVVRNVVEYQIRTGGFFSCLAMLRPLQYAKRERLLGQRNLERISTRDILQTRDLHSLCMPTPDAPMSNHQASTMRELICSYFKVDHADGLKYIPMDERYSPSSLARLFTMGMAGLHITTEPSYKRVPIMHLAADLDCMTLALPYMITLDGDTVVPVAPTLSAEQLLDDGLKGLACMDISYGCEVDANSRPAGDQSMDSSRCINELYCEETAEAICVLKTCLVLNCMQFKLEMDDLAHNAAELDKIQMMIPFSERVFRMASSFATIDAQCFRFCVMMKDKNLKIDMRETTRLWTRSASDDSVATSSLSISLDRGRWVAADASDARLLVFPIRV
notes: σNS nonstructural protein of mammalian orthoreovirus, strain type 3 Dearing, with R6A; synthesized gene in pET28; Dimer in solution (~80 kDa); The N-terminal arm is disordered in the crystal with bile acid derivatives; also called native σNS-R6A; σNS R6A mutant; source: E. coli DE3 cells, purified (Ni-NTA, TEV cleavage, Q column, S200 SEC); not shown: His tag, N-terminal, cleaved
[1]
  stoichiometry N: 2

B4: σNS-ΔN17 (σNS lacking the N-terminal 17 residues) (domain or fragment)
chain: GQQVCPNYVMLRSSVTTKVVRNVVEYQIRTGGFFSCLAMLRPLQYAKRERLLGQRNLERISTRDILQTRDLHSLCMPTPDAPMSNHQASTMRELICSYFKVDHADGLKYIPMDERYSPSSLARLFTMGMAGLHITTEPSYKRVPIMHLAADLDCMTLALPYMITLDGDTVVPVAPTLSAEQLLDDGLKGLACMDISYGCEVDANSRPAGDQSMDSSRCINELYCEETAEAICVLKTCLVLNCMQFKLEMDDLAHNAAELDKIQMMIPFSERVFRMASSFATIDAQCFRFCVMMKDKNLKIDMRETTRLWTRSASDDSVATSSLSISLDRGRWVAADASDARLLVFPIRV
notes: σNS nonstructural protein of mammalian orthoreovirus, strain type 3 Dearing, truncated by the N-terminal 17 residues; synthesized gene in pET28; Dimer in solution and in the crystal; source: E. coli DE3 cells, purified (Ni-NTA, TEV cleavage, Q column, S200 SEC); not shown: His tag, N-terminal, cleaved
[2]
  stoichiometry N: 2
